Measurements: patent US20180155451A1 (published 2018)

T1: FcγRIIb (human, UniProt P31994 43-217)
T1 construct: extracellular domain; also called FcgRIIb; 2b
T1 sequence (looked up): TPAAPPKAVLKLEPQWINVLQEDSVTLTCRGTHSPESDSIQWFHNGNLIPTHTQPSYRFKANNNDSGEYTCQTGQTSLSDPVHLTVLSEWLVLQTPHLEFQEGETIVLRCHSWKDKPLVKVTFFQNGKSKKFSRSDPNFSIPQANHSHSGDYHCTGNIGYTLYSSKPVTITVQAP

T2: FcγRIIa R (FcγRIIa, allotype R: Arg at position 131) extracellular domain with C-terminal His tag (human, UniProt P12318 34-217)
T2 construct: extracellular domain; also called FcgRIIa R; 2aR; not shown: His tag at the C terminus
T2 sequence (looked up): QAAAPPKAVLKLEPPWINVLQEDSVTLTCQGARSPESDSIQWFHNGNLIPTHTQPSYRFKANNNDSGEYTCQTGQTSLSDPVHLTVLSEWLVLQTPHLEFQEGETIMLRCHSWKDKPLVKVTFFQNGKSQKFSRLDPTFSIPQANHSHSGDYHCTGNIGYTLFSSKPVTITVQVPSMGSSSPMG

T3: FcγRIIb extracellular domain with C-terminal His tag (human, UniProt P31994 43-217)
T3 construct: extracellular domain; also called FcgRIIb; 2b; not shown: His tag at the C terminus
T3 sequence (looked up): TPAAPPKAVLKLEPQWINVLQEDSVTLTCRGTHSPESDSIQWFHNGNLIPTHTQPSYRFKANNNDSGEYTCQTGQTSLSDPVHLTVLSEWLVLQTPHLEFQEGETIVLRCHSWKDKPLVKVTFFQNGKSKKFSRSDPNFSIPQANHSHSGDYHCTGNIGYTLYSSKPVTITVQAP


Legend:
FcγRIIb = molecular target: T1, FcγRIIb; experiment: SPR (Biacore), relative to GpH7-A5/GpH7-B3/GpL16-k0 = 100
Description: (§1) The heterodimerized antibodies He Abs in which one of the H chains was introduced with an alteration were assayed for their binding activities to each activating FcγR and inhibitory FcγR according to the method described in Example 4. […] The activating FcγRs in FIGS. 26, 27, 28, and 29 are FcγRIa, FcγRIIa (R), FcγRIIa (H), and FcγRIIIa, respectively.
(§2) Analysis of interaction between objective antibody and the FcγR was carried out using Biacore T100 (GE Healthcare). HBS-EP+ (GE Healthcare) was used as the running buffer, and the measurement temperature was set to 25° C. Chips produced by immobilizing the antigen peptide by the amine coupling method to a Series S Sencor Chip CM5 (GE Healthcare), or alternatively, chips produced by allowing preliminarily biotinylated antigen peptides to interact with and immobilize onto a Series S Sensor Chip SA (certified) (GE Healthcare) were used. Antibodies of interest were captured onto an antigen peptide-immobilized chip, and allowed to interact to each FcγR diluted with running buffer. To regenerate and repeatedly use the chip, the antibodies captured on the chip were washed off by reacting 10 mM glycine-HCl, pH 1.5.

FcγRIa = molecular target: T4, FcγRIa (human, UniProt P12314 16-292); experiment: as above
T4 construct: extracellular domain; also called FcgRI; FcgRIa
T4 sequence (P12314 16-292): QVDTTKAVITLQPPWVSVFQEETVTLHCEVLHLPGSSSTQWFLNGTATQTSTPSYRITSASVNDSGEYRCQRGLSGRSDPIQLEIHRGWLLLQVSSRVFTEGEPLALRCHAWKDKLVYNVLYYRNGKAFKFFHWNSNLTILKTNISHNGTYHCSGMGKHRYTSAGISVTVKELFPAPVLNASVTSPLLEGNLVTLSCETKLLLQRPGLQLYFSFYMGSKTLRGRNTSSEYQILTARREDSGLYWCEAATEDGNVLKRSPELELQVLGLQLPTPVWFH
Description: as §1, §2

[1] = molecular target: T2, FcγRIIa R (FcγRIIa, allotype R: Arg at …); experiment: SPR Biacore, antibody captured, FcgR analyte; vs HeCon Ab GpH7-A5/GpH7-B3/GpL16-k0 = 100
Description: as §1, §2

[2] = molecular target: T3, FcγRIIb extracellular domain with …; experiment: as above
Description: as §1, §2

Row | He/Con_2b (IIb binding) (FcγRIIb) | He/Con_1a (Ia binding) (FcγRIa) | He/Con_2aR [1] | He/Con_2b [2] | Binder
1 | 97.8 relative (control = 100) | 106 relative (control = 100) | – | – | GpH7-A5/GpH7-B3 variant S337_04F/GpL16-k0 (antibody, human IgG1, kappa, heterodimerized IgG1, one H chain mutated; also called He Ab) heavy 1: not shown heavy 2: not shown light: DIVMTQSPLSLPVTPGEPASISCQASESLVHSNRNTYLHWYLQKPGQSPQLLIYKVSNRFSGVPDRFSGSGSGTDFTLKISRVEAEDVGVYYCSQNTHVPPTFGQGTKVEIERTVAAPSVFIFPPSDEQLKSGTASVVCLLNNFYPREAKVQWKVDNALQSGNSQESVTEQDSKDSTYSLSSTLTLSKADYEKHKVYACEVTHQGLSSPVTKSFNRGEC
2 | 96.7 relative (control = 100) | 107 relative (control = 100) | – | – | GpH7-A5/GpH7-B3 variant S337_06M/GpL16-k0 (antibody, human IgG1, kappa, heterodimerized IgG1, one H chain mutated; also called He Ab) heavy 1: not shown heavy 2: not shown light: DIVMTQSPLSLPVTPGEPASISCQASESLVHSNRNTYLHWYLQKPGQSPQLLIYKVSNRFSGVPDRFSGSGSGTDFTLKISRVEAEDVGVYYCSQNTHVPPTFGQGTKVEIERTVAAPSVFIFPPSDEQLKSGTASVVCLLNNFYPREAKVQWKVDNALQSGNSQESVTEQDSKDSTYSLSSTLTLSKADYEKHKVYACEVTHQGLSSPVTKSFNRGEC
3 | – | – | 105 control = 100 | 91.6 control = 100 | GpH7-A5/GpH7-B3 variant N325_14T/GpL16-k0 (antibody, human IgG1, kappa, He Ab: alteration in the GpH7-B3 H chain only; also called He Ab) heavy 1: not shown heavy 2: not shown light: DIVMTQSPLSLPVTPGEPASISCQASESLVHSNRNTYLHWYLQKPGQSPQLLIYKVSNRFSGVPDRFSGSGSGTDFTLKISRVEAEDVGVYYCSQNTHVPPTFGQGTKVEIERTVAAPSVFIFPPSDEQLKSGTASVVCLLNNFYPREAKVQWKVDNALQSGNSQESVTEQDSKDSTYSLSSTLTLSKADYEKHKVYACEVTHQGLSSPVTKSFNRGEC
4 | – | – | 105 control = 100 | 95.9 control = 100 | GpH7-A5/GpH7-B3 variant N325_10E/GpL16-k0 (antibody, human IgG1, kappa, He Ab: alteration in the GpH7-B3 H chain only; also called He Ab) heavy 1: not shown heavy 2: not shown light: DIVMTQSPLSLPVTPGEPASISCQASESLVHSNRNTYLHWYLQKPGQSPQLLIYKVSNRFSGVPDRFSGSGSGTDFTLKISRVEAEDVGVYYCSQNTHVPPTFGQGTKVEIERTVAAPSVFIFPPSDEQLKSGTASVVCLLNNFYPREAKVQWKVDNALQSGNSQESVTEQDSKDSTYSLSSTLTLSKADYEKHKVYACEVTHQGLSSPVTKSFNRGEC
5 | 99.7 relative (control = 100) | 105 relative (control = 100) | – | – | GpH7-A5/GpH7-B3 variant S337_19Q/GpL16-k0 (antibody, human IgG1, kappa, heterodimerized IgG1, one H chain mutated; also called He Ab) heavy 1: not shown heavy 2: not shown light: DIVMTQSPLSLPVTPGEPASISCQASESLVHSNRNTYLHWYLQKPGQSPQLLIYKVSNRFSGVPDRFSGSGSGTDFTLKISRVEAEDVGVYYCSQNTHVPPTFGQGTKVEIERTVAAPSVFIFPPSDEQLKSGTASVVCLLNNFYPREAKVQWKVDNALQSGNSQESVTEQDSKDSTYSLSSTLTLSKADYEKHKVYACEVTHQGLSSPVTKSFNRGEC
6 | – | – | 102 control = 100 | 95 control = 100 | GpH7-A5/GpH7-B3 variant A330_15Y/GpL16-k0 (antibody, human IgG1, kappa, He Ab: alteration in the GpH7-B3 H chain only; also called He Ab) heavy 1: not shown heavy 2: not shown light: DIVMTQSPLSLPVTPGEPASISCQASESLVHSNRNTYLHWYLQKPGQSPQLLIYKVSNRFSGVPDRFSGSGSGTDFTLKISRVEAEDVGVYYCSQNTHVPPTFGQGTKVEIERTVAAPSVFIFPPSDEQLKSGTASVVCLLNNFYPREAKVQWKVDNALQSGNSQESVTEQDSKDSTYSLSSTLTLSKADYEKHKVYACEVTHQGLSSPVTKSFNRGEC
7 | – | – | 104 control = 100 | 99.8 control = 100 | GpH7-A5/GpH7-B3 variant L234_04F/GpL16-k0 (antibody, human IgG1, kappa, He Ab: alteration in the GpH7-B3 H chain only; also called He Ab) heavy 1: not shown heavy 2: not shown light: DIVMTQSPLSLPVTPGEPASISCQASESLVHSNRNTYLHWYLQKPGQSPQLLIYKVSNRFSGVPDRFSGSGSGTDFTLKISRVEAEDVGVYYCSQNTHVPPTFGQGTKVEIERTVAAPSVFIFPPSDEQLKSGTASVVCLLNNFYPREAKVQWKVDNALQSGNSQESVTEQDSKDSTYSLSSTLTLSKADYEKHKVYACEVTHQGLSSPVTKSFNRGEC
8 | – | – | 103 control = 100 | 89.2 control = 100 | GpH7-A5/GpH7-B3 variant K326_12R/GpL16-k0 (antibody, human IgG1, kappa, He Ab: alteration in the GpH7-B3 H chain only; also called He Ab) heavy 1: not shown heavy 2: not shown light: DIVMTQSPLSLPVTPGEPASISCQASESLVHSNRNTYLHWYLQKPGQSPQLLIYKVSNRFSGVPDRFSGSGSGTDFTLKISRVEAEDVGVYYCSQNTHVPPTFGQGTKVEIERTVAAPSVFIFPPSDEQLKSGTASVVCLLNNFYPREAKVQWKVDNALQSGNSQESVTEQDSKDSTYSLSSTLTLSKADYEKHKVYACEVTHQGLSSPVTKSFNRGEC
